From US20220288226A1 (ENOSI LIFE SCIENCES, published 2022)

T1: TNFR1 on cells (human, UniProt P19438 30-455)
T1 sequence: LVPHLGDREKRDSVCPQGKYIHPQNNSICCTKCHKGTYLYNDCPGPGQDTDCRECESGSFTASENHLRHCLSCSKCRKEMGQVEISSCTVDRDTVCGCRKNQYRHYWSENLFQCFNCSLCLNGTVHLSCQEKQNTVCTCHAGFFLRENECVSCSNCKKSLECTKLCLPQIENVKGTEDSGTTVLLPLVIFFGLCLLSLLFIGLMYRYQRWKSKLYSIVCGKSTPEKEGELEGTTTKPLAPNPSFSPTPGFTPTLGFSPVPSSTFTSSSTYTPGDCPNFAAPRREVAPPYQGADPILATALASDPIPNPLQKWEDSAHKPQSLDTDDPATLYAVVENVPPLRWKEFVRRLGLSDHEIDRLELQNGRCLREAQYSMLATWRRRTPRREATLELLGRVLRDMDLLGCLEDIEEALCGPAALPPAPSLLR

T2: extracellular domain of TNFR-1 (human, UniProt P19438 30-211)
T2 construct: The construct limits, tag, supplier and species are not restated there; also called TNFR1 extracellular domain; tumor necrosis factor receptor-1 (TNFR1)
T2 sequence: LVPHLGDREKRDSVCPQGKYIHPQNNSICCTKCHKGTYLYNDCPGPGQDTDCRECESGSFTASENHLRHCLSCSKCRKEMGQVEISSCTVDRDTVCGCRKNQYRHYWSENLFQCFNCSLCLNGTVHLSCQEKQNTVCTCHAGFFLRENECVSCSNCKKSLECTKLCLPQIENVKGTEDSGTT


Columns and labels:
TNFR1 on cells = target: T1, TNFR1 on cells; test: cell-based or functional assay
[1] = target: T2, extracellular domain of TNFR-1; test: SPR (Biacore), Vhh on TNFR1 extracellular domain
Experimental: (§1) Each of Vhh 1-4 subsequently was tested in binding studies using the surface plasmon resonance (SPR) method (Sciences GL. Biacore Assay Handbook. General Electric Company (2012); and Richter et al. (2019) MAbs 11:166-177). Competition assays of Vhh inhibition of TNF-a binding to TNFR1 extracellular domain also were performed as described in Richter et al. (2019).

[2] = target: T2, extracellular domain of TNFR-1; test: competition assay, Vhh inhibition of TNF binding to TNFR1; competitor TNF-a
Experimental: as §1

Binder	TNF Dependent Bioassay (IC50): VCAM (TNFR1 on cells) [nM]	Kd [1] [nM]	IC50 [2] [nM]
Vhh-4 (VHH, also called DOM1h-131-206) VHH: EVQLLESGGGLVQPGGSLRLSCAASGFTFAHETMVWVRQAPGKGLEWVSHIPPDGQDPFYADSVKGRFTISRDNSKNTLYLQMNSLRAEDTAVYHCALLPKRGPWFDYWGQGTLVTVSS	0.3	0.00066	~1
Vhh-2 (VHH, not shown: small tags and cut ends, it is placed last only by convention; also called Recombinant human anti-TNFRSF1A single domain antibody) VHH: EVQLLESGGGLVQPGGSLRLSCAASGFTFSQYRMHWVRQAPGKSLEWVSSIDTRGSSTYYADPVKGRFTISRDNSKNTLYLQMNSLRAEDTAVYYCAKAVTMFSPFFDYWGQGTLV	3	1000	–
